Measurements reported in patent US20180023146A1 (CLEVELAND CLINIC FOUNDATION, published 2018).

Target: T1, 3βHSD1 (367N)-HA (human, UniProt P14060 2-373)
T1 construct: Expressed from pCMX-HSD3B1-HA in 293T cells and immunoprecipitated with anti-HA antibody; also called HSD3B1(N)-HA; not shown: HA tag fused to HSD3B1
T1 sequence (looked up): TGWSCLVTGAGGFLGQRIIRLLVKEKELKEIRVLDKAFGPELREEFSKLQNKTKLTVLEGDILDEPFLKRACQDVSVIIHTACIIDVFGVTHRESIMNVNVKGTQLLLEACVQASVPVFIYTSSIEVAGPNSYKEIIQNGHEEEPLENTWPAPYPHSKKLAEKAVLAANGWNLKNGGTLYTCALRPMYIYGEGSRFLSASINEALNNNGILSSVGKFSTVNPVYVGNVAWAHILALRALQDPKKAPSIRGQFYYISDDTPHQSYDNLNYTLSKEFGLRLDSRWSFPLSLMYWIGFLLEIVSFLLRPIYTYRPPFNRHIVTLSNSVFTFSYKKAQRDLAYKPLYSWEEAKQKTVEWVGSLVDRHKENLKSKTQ
Assay: SILAC with high-resolution mass spectrometry; 367N-HA (heavy) and 367T-HA (light) immunoprecipitations mixed 1:1

normalized protein ratio (SILAC; 3βHSD1 (367N)-HA against 3βHSD1 (367T)-HA immunoprecipitates): 1.67
B1: AMFR (autocrine mobility factor receptor) (enzyme, UniProt Q9UKV5 1-643, looked up)
chain: MPLLFLERFPWPSLRTYTGLSGLALLGTIISAYRALSQPEAGPGEPDQLTASLQPEPPAPARPSAGGPRARDVAQYLLSDSLFVWVLVNTACCVLMLVAKLIQCIVFGPLRVSERQHLKDKFWNFIFYKFIFIFGVLNVQTVEEVVMWCLWFAGLVFLHLMVQLCKDRFEYLSFSPTTPMSSHGRVLSLLVAMLLSCCGLAAVCSITGYTHGMHTLAFMAAESLLVTVRTAHVILRYVIHLWDLNHEGTWEGKGTYVYYTDFVMELTLLSLDLMHHIHMLLFGNIWLSMASLVIFMQLRYLFHEVQRRIRRHKNYLRVVGNMEARFAVATPEELAVNNDDCAICWDSMQAARKLPCGHLFHNSCLRSWLEQDTSCPTCRMSLNIADNNRVREEHQGENLDENLVPVAAAEGRPRLNQHNHFFHFDGSRIASWLPSFSVEVMHTTNILGITQASNSQLNAMAHQIQEMFPQVPYHLVLQDLQLTRSVEITTDNILEGRIQVPFPTQRSDSIRPALNSPVERPSSDQEEGETSAQTERVPLDLSPRLEETLDFGEVEVEPSEVEDFEARGSRFSKSADERQRMLVQRKDELLQQARKRFLNKSSEDDAASESFLPSEGASSDPVTLRRRMLAAAAERRLQKQQTS
notes: It appears to be the protein of the human 293T cells, co-immunoprecipitated with HA-tagged 3βHSD1; also called gp78; ubiquitin E3-ligase AMFR
